Legend:
[1] = target: T1, huCDH19(44-772), Flag-tagged, on 293T cells (human, UniProt Q9H159 44-772); assay: FACS, transfected 293T
T1 construct: Expressed with native leader (1-43) followed by a Flag tag; leader left out; also called Hu EC1-5
Text: (§1) The experiment included assaying the anti-CDH19 antibodies against mouse Cadherin19 to determine suitability for binning on these human/mouse chimeras.

[2] = target: T2, huCDH19(44-141)::muCDH19(140-770), Flag-tagged, on 293T cells (human/mouse chimera); assay: FACS, transfected 293T
T2 construct: also called Hu EC1
Text: as §1

[3] = target: T3, huCDH19(44-249)::muCDH19(248-770), Flag-tagged, on 293T cells (human/mouse chimera); assay: FACS, transfected 293T
T3 construct: also called Hu EC1-2; C137896
Text: as §1

Cyno Cadherin-19 = target: T4, Cyno Cadherin-19 (cynomolgus monkey (Macaca fascicularis), UniProt Q9H159 44-772 (human entry)); assay: FACS, recombinant cyno CDH19
T4 construct: also called cyno CDH19; cynomologous CDH-19
T4 chain: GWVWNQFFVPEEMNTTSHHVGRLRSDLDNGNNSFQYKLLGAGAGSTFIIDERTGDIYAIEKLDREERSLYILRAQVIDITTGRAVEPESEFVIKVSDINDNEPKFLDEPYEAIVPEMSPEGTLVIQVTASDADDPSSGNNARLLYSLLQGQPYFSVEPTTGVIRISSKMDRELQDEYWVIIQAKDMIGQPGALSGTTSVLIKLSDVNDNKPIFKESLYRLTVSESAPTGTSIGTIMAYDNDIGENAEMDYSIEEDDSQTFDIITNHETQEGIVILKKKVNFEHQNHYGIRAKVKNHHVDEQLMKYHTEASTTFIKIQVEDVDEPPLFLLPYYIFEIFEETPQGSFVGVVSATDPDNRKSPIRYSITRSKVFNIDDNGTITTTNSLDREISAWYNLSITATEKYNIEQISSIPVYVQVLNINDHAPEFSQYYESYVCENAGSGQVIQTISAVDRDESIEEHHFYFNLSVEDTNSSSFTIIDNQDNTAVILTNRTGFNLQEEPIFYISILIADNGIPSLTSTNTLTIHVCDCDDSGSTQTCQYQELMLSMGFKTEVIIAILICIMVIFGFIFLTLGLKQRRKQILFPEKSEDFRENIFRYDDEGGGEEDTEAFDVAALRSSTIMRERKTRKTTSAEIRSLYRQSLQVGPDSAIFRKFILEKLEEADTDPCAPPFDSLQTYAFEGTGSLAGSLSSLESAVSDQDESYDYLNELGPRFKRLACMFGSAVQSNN

Human Cadherin-19 = target: T5, Human Cadherin-19 (human, UniProt Q9H159 44-772); assay: FACS, endogenous CDH19 on CHL-1/Colo699
T5 construct: Residues 1-43 are named as the native leader in the construct designations and are left out; also called human CDH19; huCDH19
Experimental: FACS binding assays were performed to evaluate the binding of the anti-Cadherin-19 receptor specific antibodies to endogenous Cadherin-19 receptor expressed on the CHL-1 tumor cell lines.
FACs assays were performed by incubating hybridoma supernatants with 10,000 to 25,000 cells in PBS/2% Fetal bovine serum/2 mM Calcium Chloride at 4° C. for one hour followed by two washes with PBS/2% Fetal bovine serum/2 mM Calcium Chloride. Cells were then treated with florochrome-labeled secondary antibodies at 4° C. followed by one wash. The cells were resuspended in 50 μl of PBS/2% FBS and antibody binding was analyzed using a FACSCalibur™ instrument.

[4] = target: T6, ckCDH19(1-43)::FLAG::ckCDH19(44-776), on 293T cells (chicken); assay: FACS, transfected 293T;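 further: antibody binding to chimera-expressing cells with 2 mM CaCl2 present, cell-bound Alexa647-labelled antibody read by flow cytometry, mock-transfected cells serving as control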
T6 construct: Entry holds leader (1-43), Flag tag and CDH19 part; leader left out; also called Ck EC1-5
T6 chain: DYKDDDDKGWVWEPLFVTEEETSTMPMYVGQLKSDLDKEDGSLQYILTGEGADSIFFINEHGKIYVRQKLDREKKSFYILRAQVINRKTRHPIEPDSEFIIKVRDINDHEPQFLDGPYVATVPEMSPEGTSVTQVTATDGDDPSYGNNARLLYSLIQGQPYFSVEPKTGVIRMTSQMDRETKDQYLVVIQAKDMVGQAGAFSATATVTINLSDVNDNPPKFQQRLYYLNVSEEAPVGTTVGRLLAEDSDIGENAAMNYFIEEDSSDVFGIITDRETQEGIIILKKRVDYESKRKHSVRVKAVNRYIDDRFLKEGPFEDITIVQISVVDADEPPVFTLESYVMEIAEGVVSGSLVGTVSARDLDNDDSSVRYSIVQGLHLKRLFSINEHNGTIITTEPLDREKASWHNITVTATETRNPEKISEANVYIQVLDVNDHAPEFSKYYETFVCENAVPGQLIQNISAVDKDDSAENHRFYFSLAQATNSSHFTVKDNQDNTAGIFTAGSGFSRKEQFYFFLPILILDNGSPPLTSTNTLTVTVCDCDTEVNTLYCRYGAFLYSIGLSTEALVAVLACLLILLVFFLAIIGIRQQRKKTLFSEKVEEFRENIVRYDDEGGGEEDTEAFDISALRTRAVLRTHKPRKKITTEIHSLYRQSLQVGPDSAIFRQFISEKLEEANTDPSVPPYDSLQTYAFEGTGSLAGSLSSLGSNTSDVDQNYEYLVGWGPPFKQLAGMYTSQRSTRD
Experimental: (§2) The following binding assay was completed in presence of 2 mM CaCl2. […] Cells were then washed one time and the amount of cell associated Alexa647-labelled Ab was quantitated by flow cytometry. The experiments included mock transfected controls.

[5] = target: T7, huCDH19(1-43)::FLAG::hu(44-141)::ckCDH19(142-776), on 293T cells (human/chicken chimera); assay: FACS, transfected 293T;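 further: antibody binding to chimera-expressing cells with 2 mM CaCl2 present, cell-bound Alexa647-labelled antibody read by flow cytometry, mock-transfected cells serving as control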
T7 construct: Entry holds leader (1-43), Flag tag and CDH19 part; leader left out; also called Hu EC1 (chicken backbone)
Experimental: as §2

[6] = target: T8, ckCDH19(1-43)::FLAG::ckCDH19(44-141)::huCDH19(142-249)::ckCDH19(250-776), on 293T cells (human/chicken chimera); assay: FACS, transfected 293T;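 further: antibody binding to chimera-expressing cells with 2 mM CaCl2 present, cell-bound Alexa647-labelled antibody read by flow cytometry, mock-transfected cells serving as control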
T8 construct: Entry holds leader (1-43), Flag tag and CDH19 part; leader left out; also called Hu EC2 (chicken backbone)
T8 chain: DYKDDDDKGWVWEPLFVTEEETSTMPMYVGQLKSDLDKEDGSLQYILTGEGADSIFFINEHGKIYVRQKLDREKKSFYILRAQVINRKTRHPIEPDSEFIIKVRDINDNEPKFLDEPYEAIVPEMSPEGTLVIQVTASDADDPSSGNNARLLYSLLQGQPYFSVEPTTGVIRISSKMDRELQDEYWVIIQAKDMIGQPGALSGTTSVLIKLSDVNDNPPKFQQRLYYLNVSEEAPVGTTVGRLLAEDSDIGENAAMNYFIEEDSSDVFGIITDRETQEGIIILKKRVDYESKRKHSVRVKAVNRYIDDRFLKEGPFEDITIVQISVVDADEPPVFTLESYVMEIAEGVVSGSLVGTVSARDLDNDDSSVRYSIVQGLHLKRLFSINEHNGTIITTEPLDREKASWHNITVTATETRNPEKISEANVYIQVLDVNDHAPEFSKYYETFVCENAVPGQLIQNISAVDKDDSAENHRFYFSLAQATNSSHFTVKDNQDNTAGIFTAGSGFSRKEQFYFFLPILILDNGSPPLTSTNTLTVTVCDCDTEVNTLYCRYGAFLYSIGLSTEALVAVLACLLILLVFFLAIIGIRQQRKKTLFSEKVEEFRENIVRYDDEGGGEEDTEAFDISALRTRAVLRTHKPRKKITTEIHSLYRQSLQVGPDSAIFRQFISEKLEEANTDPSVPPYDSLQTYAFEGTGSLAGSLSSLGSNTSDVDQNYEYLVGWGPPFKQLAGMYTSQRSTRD
Experimental: as §2

[7] = target: T9, (1-43)::FLAG::ckCDH19(44-468)::huCDH19(464-772), on 293T cells (human/chicken chimera); assay: FACS, transfected 293T;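 further: antibody binding to chimera-expressing cells with 2 mM CaCl2 present, cell-bound Alexa647-labelled antibody read by flow cytometry, mock-transfected cells serving as control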
T9 construct: Entry holds leader (1-43), Flag tag and CDH19 part; leader left out; also called Hu EC5 (chicken backbone)
T9 chain: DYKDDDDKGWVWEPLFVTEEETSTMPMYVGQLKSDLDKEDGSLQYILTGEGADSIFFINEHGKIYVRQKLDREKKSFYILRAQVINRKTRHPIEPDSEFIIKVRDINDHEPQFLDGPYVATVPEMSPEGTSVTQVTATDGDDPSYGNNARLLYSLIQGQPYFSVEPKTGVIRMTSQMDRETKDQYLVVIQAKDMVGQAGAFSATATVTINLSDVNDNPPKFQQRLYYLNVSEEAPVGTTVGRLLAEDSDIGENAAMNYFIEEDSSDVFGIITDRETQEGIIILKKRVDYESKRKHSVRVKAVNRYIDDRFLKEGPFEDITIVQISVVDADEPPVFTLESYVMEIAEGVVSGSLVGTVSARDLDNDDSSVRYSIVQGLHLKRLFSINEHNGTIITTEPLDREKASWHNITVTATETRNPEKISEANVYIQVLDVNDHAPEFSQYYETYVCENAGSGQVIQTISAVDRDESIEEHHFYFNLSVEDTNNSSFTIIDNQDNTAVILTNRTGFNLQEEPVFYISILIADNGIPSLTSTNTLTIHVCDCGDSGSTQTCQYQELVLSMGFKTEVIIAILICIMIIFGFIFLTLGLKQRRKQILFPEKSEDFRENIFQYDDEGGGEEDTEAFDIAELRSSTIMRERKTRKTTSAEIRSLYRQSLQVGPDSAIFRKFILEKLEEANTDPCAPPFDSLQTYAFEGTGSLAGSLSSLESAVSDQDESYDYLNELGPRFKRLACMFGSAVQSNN
Experimental: as §2

B1: hu anti-<huCDH19> 4A9 VH::huIgG1z / 4A9 (1-239)(F47L) VL::huLLC-C1 (Ab ID 14056) (antibody, V domains shown)
VH: QVQLQESGPGLVKPSETLSLTCTVSGGSISGYYWSWIRQPPGKGLEWFAYFSYSGSTNYNPSLKSRVTLSVDTSKNQFSLKLSSVTAADTAVYYCARNWAFHFDFWGQGTLVTVSS
VL: QSVLTQPPSVSGAPGQRVTISCTGSSSNIGTGYAVHWYQQLPGTAPKLLIYGNNNRPSGVPDRFSGSKSGTSASLAITGLQAEDEADYYCQSYDSRLSGWVFGGGTKLTVLG
notes: Engineered variant of 4A9
[1]
  binding result: binds
[2]
  binding result: binds
[3]
  binding result: binds

B2: hu anti-<huCDH19> 4A9 (1-468)(F55I,A56G) VH::huIgG1z / 4A9 (1-239)(F47L) VL::huLLC-C1 (Ab ID 14057) (antibody, V domains shown)
VH: QVQLQESGPGLVKPSETLSLTCTVSGGSISGYYWSWIRQPPGKGLEWIGYFSYSGSTNYNPSLKSRVTLSVDTSKNQFSLKLSSVTAADTAVYYCARNWAFHFDFWGQGTLVTVSS
VL: QSVLTQPPSVSGAPGQRVTISCTGSSSNIGTGYAVHWYQQLPGTAPKLLIYGNNNRPSGVPDRFSGSKSGTSASLAITGLQAEDEADYYCQSYDSRLSGWVFGGGTKLTVLG
notes: Engineered variant of 4A9
[1]
  binding result: binds
[2]
  binding result: binds
[3]
  binding result: binds

B3: hu anti-<huCDH19> 20D3.1 VH::huIgG1z / 20D3.1 VL::huLLC-C2 (Ab ID 13878) (antibody, V domains shown)
VH: QVQLVQSGAEVKKPGASVKVSCKVSGYTFTSYFIHWVRQAPGQGLEWMGIINPISVSTSYAQKFQGRVTMTRDTSTSTVFMELSSLRSEDTAVYYCARGGIQLWLHFDYWGQGTLVTVSS
VL: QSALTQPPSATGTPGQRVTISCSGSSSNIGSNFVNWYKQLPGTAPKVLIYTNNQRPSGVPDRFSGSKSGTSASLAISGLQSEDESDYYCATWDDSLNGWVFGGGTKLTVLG
notes: also called 16H2; 23E7
Cyno Cadherin-19
  binding result: binds
Human Cadherin-19
  binding result: binds

B4: hu anti-<huCDH19> 19B5.1 VH::huIgG1z / 19B5.1 VL::huLLC-C2 (Ab ID 13885) (antibody, V domains shown)
VH: QVQLVQSGAEVKKPGASVKVSCKVSGYTFTSYFIHWVRQAPGQGLEWMGIINPISVSTSYAQKFQGRVTMTRDTSTSTVFMELSSLRSEDTAVYYCARGGIQLWLHLDYWGQGTLVTVSS
VL: QSALTQPPSTTGTPGQRVTISCSGSRSNIGSNFVNWYKQLPGTAPKVLIYTNNQRPSGVPDRFSGSKSGTSASLAISGLQSEDESDYYCATWDDSMNGWVFGGGTKLTVLG
Cyno Cadherin-19
  binding result: binds
Human Cadherin-19
  binding result: binds

B5: hu anti-<huCDH19> 25F8.1 VH::huIgG1z / 25F8.1 (1-235)(K45Q,S102A) VL::huLLC-C2 (Ab ID 14094) (antibody, V domains shown)
VH: QVQLVQSGAEVKKPGASVKVSCKASGYTFTSYYIHWVRQAPGQGLEWMGIINPSGGSTRYAQKFQGRVTMTRDTSTSTVFMELSSLRSEDTAVYYCARGGIQLWLHFDYWGQGTLVTVSS
VL: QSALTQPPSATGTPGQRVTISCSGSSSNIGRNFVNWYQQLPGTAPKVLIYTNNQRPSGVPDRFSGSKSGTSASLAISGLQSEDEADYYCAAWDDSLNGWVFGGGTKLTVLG
notes: Engineered variant of 25F8
[1]
  binding result: binds
[2]
  binding result: binds
[3]
  binding result: binds

B6: hu anti-<huCDH19> 26D1.1 (1-469)(R27G,G82R) VH::huIgG1z / 26D1.1 (1-235)(H1Q,S7P) VL::huLLC-C2 (Ab ID 14088) (antibody, V domains shown)
VH: QVQLVQSGAEVKKPGASVKVSCKASGYTFTSYYMSWVRQAPGQGLEWMGIIHPSGGDTTYAQKFQGRVTMTRDTSTSTVYMELSSLRSEDTAVYYCARGGIKLWLHFDYWGQGTLVTVSS
VL: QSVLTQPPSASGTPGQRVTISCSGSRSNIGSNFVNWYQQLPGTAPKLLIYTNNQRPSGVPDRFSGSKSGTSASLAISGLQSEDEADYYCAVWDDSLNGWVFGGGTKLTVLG
notes: Engineered variant of 26D1
[1]
  binding result: binds
[2]
  binding result: binds
[3]
  binding result: binds

B7: hu anti-<huCDH19> 17H8.2 VH::huIgG1z / 17H8.2 VL::huKLC (Ab ID 13874) (antibody, V domains shown)
VH: QVQLQESGPGLVKPSETLSLTCTVSGGSINSYYWSWIRQPPGKGLEWIGYIYYIGSTNYNPSLKSRVTISVDTSKNQFSLKLSSVTAADTALYYCARDSRYRSGWYDAFDIWGQGTMVTVSS
VL: DIVLTQSPGTLSLSPGERATLSCRASQSVAGSYLAWYQQKPGQAPRLLISGASSRATGIPDRFSGSGSGTDFTLTISRLEPEDFAVYYCQQYGKSPITFGQGTRLEMKG
notes: also called 23B6; 28D10
[4]
  binding result: no binding (tested: 5 ug/ml)
[5]
  binding result: binds
[6]
  binding result: no binding (tested: 5 ug/ml)
[7]
  binding result: no binding (tested: 5 ug/ml)

B8: hu anti-<huCDH19> 4B10 (1-471)(R17G,D61E,D72E) VH::huIgG1z / 4B10 (1-236)(H45Q,A90T) VL::huKLC (Ab ID 14055) (antibody, V domains shown)
VH: QVQLVESGGGVVQPGGSLRLSCAASGFTFSSYDMHWVRQAPGKGLEWVAVISYEGTNEYYAESVKGRFTISRDTSKNTLYLQMNSLRAEDTAVYYCARERYFDWSFDYWGQGTLVSVSS
VL: EIVLTQSPGTLSLSPGERATLSCRASQSVSNTYLAWYQQRPGQAPRLLIYGASSRATGIPDRFSGSGSGTDFTLTISSLEPEDFAVYYCQQYSNSWTFGQGTKVEIKR
notes: Engineered variant of 4B10
[1]
  binding result: binds
